B1: hybrid bispecific aptamer without toehold (HBA; 15-mer-Sticky + 29-mer-Sticky) (structured_DNA)
DNA 1: GGTTGGTGTGGTTGGTTTTTGACCCTGCGTACC
DNA 2: AGTCCGTGGTAGGGCAGGTTGGGGTGACTTTTTTGGTACGCAGGTC
B2: toehold hybrid bispecific aptamer (THBA; 15-mer-Sticky + 29-mer-Sticky-TH) (structured_DNA)
DNA 1: B1 DNA 1
DNA 2: AGTCCGTGGTAGGGCAGGTTGGGGTGACTTTTTTGGTACGCAGGTCCGTTA

Molecular target: thrombin (biotinylated, immobilized on streptavidin microparticles) (UniProt P00734;P00734 328-363;364-622)
Test: microparticle flow cytometry; Thrombin-microparticles incubated with 0.5-200 nM FAM-aptamer, washed with DPBS, flow cytometry; binding buffer, pH and temperature not stated

| Binder | Kd [nM] |
| --- | --- |
| B1 | 4.8 |
| B2 | ~5.7 |
